From patent publication US6410226

B1: hsREC2 (human REC2, ATP-dependent homologous pairing protein) (protein)
chain: MGSKKLKRVGLSQELCDRLSRHQILTCQDFLCLSPLELMKVTGLSYRGVHELLCMVSRACAPKMQTAYGIKAQRSADFSPAFLSTTLSALDEALHGGVACGSLTEITGPPGCGKTQFCIMMSILATLPTNMGGLEGAVVYIDTESAFSAERLVEIAESRFPRYFNTEEKLLLTSSKVHLYRELTCDEVLQRIESLEEEIISKGIKLVILDSVASVVRKEFDAQLQGNLKERNKFLAREASSLKYLAEEFSIPVILTNQITTHLSGALASQADLVSPADDLSLSEGTSGSSCVIAALGNTWSHSVNTRLILQYLDSERRQILIAKSPLAPFTSFVYTIKEEGLVLQAYGNS
Hill coefficient of ATP hydrolysis (ATPase activity) at ATP concentrations of <100 µM: the Hill coefficient (1.8)
